In the supplement of paper PMC7125110:
± gives the standard error. For part of these data: Variants at the floor of the assay were thinned out.

B1: glmS ribozyme (parent)
chain: AUAAAAGCGCCAGAACUACAGAAAUGUAGUUGACGAGGAGGAGGUUUAUCGAAUUUUCGGCGGAUGCCUCCAAA

Assays:
Conditions in all cases: with glucosamine-6-phosphate
glucosamine-6-phosphate [1] = variants of: B1; test: kcat; higher = faster cleavage; RNA array
Method in brief: (§1)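 Barcoded glmS ribozyme variants on sequenced MiSeq chips were transcribed in situ by E. coli RNA polymerase and tracked through a hybridised Cy3 probe at 37 °C. Glucosamine-6-phosphate (40 μM to 10 mM) in HEPES/KCl/Mg(OAc)2 buffer was flowed in, and tiles were imaged over ~14 h. Signals were normalised to baseline and to non-cleaving reference variants; per-tile medians were fit to one- or two-exponential decays to give kobs. kcat and KM came from weighted Michaelis–Menten fits across concentrations.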

glucosamine-6-phosphate [2] = variants of: B1; test: KM; higher = weaker cofactor use; RNA array
Method in brief: as §1

glucosamine-6-phosphate [3] = variants of: B1; test: self-cleavage kobs at 640 uM GlcN6P; higher = faster cleavage; RNA array
Method in brief: as §1

glucosamine-6-phosphate [4] = variants of: B1; test: self-cleavage kobs at 2500 uM GlcN6P; higher = faster cleavage; RNA array
Method in brief: as §1

glucosamine-6-phosphate [5] = variants of: B1; test: self-cleavage kobs at 10000 uM GlcN6P; higher = faster cleavage; RNA array
Method in brief: as §1

glucosamine-6-phosphate [6] = variants of: B1; test: self-cleavage kobs at 40 uM GlcN6P; higher = faster cleavage; RNA array
Method in brief: as §1

glucosamine-6-phosphate [7] = variants of: B1; test: self-cleavage kobs at 160 uM GlcN6P; higher = faster cleavage; RNA array
Method in brief: as §1

Row | Variant | kcat (glucosamine-6-phosphate [1]) [s⁻¹] | KM (glucosamine-6-phosphate [2]) [µM] | self-cleavage kobs at 640 uM GlcN6P (glucosamine-6-phosphate [3]) [s⁻¹] | self-cleavage kobs at 2500 uM GlcN6P (glucosamine-6-phosphate [4]) [s⁻¹] | self-cleavage kobs at 10000 uM GlcN6P (glucosamine-6-phosphate [5]) [s⁻¹] | self-cleavage kobs at 40 uM GlcN6P (glucosamine-6-phosphate [6]) [s⁻¹] | self-cleavage kobs at 160 uM GlcN6P (glucosamine-6-phosphate [7]) [s⁻¹]
1 | G41U U65A | 0.000223 ± 4.3e-05 | 1090 ± 470 | 8.03e-05 ± 8.5e-06 | 0.000238 ± 3.1e-05 | 0.000183 ± 2e-05 |  | 
2 | A14G C58U C61U | 1.33e-05 ± 2.7e-06 |  |  |  |  | < 1e-05 | 
3 | A39G A48C | 0.000798 ± 0.00012 | 2140 ± 600 | 0.000196 ± 3.4e-05 | 0.000468 ± 9e-05 | 0.00063 ± 0.0001 |  | 
4 | A15C A53C | 0.00123 ± 0.00037 | 2900 ± 1400 | 0.000308 ± 6e-05 | 0.000472 ± 0.00011 | 0.00102 ± 0.00019 | 2.74e-05 ± 1.3e-05 | 5.14e-05 ± 1.6e-05
5 | C16G G40C | 0.0003 ± 2.6e-05 | 1660 ± 360 | 8.17e-05 ± 2e-05 | 0.000212 ± 5.8e-05 | 0.000252 ± 3.6e-05 |  | 
6 | A33U C71A | 4.74e-05 ± 6.5e-07 | 919 ± 65 |  | 3.52e-05 ± 8.5e-06 | 4.32e-05 ± 6.2e-06 | < 1e-05 | 
7 | G43U U65A | 4.13e-05 ± 2e-06 | 5670 ± 730 | < 1e-05 |  | 2.64e-05 ± 1.1e-05 |  | < 1e-05
8 | G37A U54A U65G | 0.000309 ± 7.3e-05 | 5170 ± 1900 | 4.03e-05 ± 1.2e-05 | 9.16e-05 ± 2e-05 | 0.000215 ± 5e-05 |  | 
9 | C11A G40U | 1.13e-05 ± 2e-06 |  | < 1e-05 |  |  |  | < 1e-05
10 | U47A A52G | 0.00213 ± 0.00047 | 5080 ± 1600 | 0.000221 ± 3.3e-05 | 0.000661 ± 9.9e-05 | 0.00146 ± 0.0002 | 3.28e-05 ± 1.5e-05 | 8.42e-05 ± 1.9e-05
11 | A33U U49A C58U | < 1e-05 |  |  |  |  | < 1e-05 | 
12 | U46C A48C | 0.000204 ± 4.7e-05 |  |  | 8.54e-05 ± 2.8e-05 | 0.000136 ± 2.8e-05 |  | 
13 | A33U A53U G66A | 7.62e-05 ± 1.7e-06 |  |  |  |  |  | 
14 | A42G U49A | 1.03e-05 ± 2.5e-06 |  |  |  |  |  | 
15 | G37A C68U | 6.89e-05 ± 7.5e-06 | 2690 ± 820 | 1.94e-05 ± 7.7e-06 | 3.08e-05 ± 5.5e-06 | 5.51e-05 ± 6e-06 |  | 
16 | U54G U56A G66A | 0.00395 ± 0.00074 | 1470 ± 370 | 0.00162 ± 0.00028 | 0.00236 ± 0.00049 | 0.00335 ± 0.00067 | 0.000108 ± 1.7e-05 | 0.000344 ± 5.5e-05
17 | A15U A64G | 0.00706 ± 0.00091 | 1990 ± 370 | 0.00182 ± 0.00029 | 0.00336 ± 0.00058 | 0.0066 ± 0.001 | 0.000142 ± 2.5e-05 | 0.00053 ± 0.0001
